The supplement of paper PMC12338614
± gives the uncertainty stated by the source.

B1: library; numbered along this chain (parent)
chain: MEVVDPQQLGMFTEGELMSVGMDTFIHRIDSTEVIYQPRRKRAKLIGKYLMGDLLGEGSYGKVKEVLDSETLCRRAVKILKKKKLRRIPNGEANVKKEIQLLRRLRHKNVIQLVDVLYNEEKQKMYMVMEYCVCGMQEMLDSVPEKRFPVCQAHGYFCQLIDGLEYLHSQGIVHKDIKPGNLLLTTGGTLKISDLGVAEALHPFAADDTCRTSQGSPAFQPPEIANGLDTFSGFKVDIWSAGVTLYNITTGLYPFEGDNIYKLFENIGKGSYAIPGDCGPPLSDLLKGMLEYEPAKRFSIRQIRQHSWFRKKHPPAEAPVPIPPSPDTKDRWRSMTVVPYLEDLHGADEDEDLFDIEDDIIYTQDFTVPGQVPEEEASHNGQRRGLPKAVCMNGTEAAQLSTKSRAEGRAPNPARKACSASSKIRRLSACKQQ

Variants of: B1
Test: STK11 functional score (HeLa growth suppression), rescaled enrichment; synonymous median = 1, nonsense median = 0 (normalised score)
Conditions: with HeLa; variant type: missense
Outline: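 Codon-randomised (POPCode) libraries of codon-optimised STK11 were integrated by Bxb1 at an AAVS1 landing pad in HeLa, in three regions each transfected three times. Integrants (BFP-negative, mCherry-positive) were FACS-sorted 4–5 days after electroporation and grown about two weeks; tiled gDNA amplicons were sequenced on NextSeq (~2 million reads per tile). The functional score is the wild-type-corrected post/pre-selection log ratio, rescaled to synonymous and nonsense medians, merged over codons and replicate transfections, with bootstrapped error.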

Row | Variant | STK11 functional score
1 | E357D | 0.56 ± 0.73
2 | E357F | 0.965 ± 0.41
3 | Q137I | 0.934 ± 0.38
4 | K312C | 1.17 ± 0.52
5 | E98R | 0.172 ± 0.083
6 | E98M | 0.133 ± 0.46
7 | L184N | 0.425 ± 0.35
8 | T189G | 0.924 ± 0.71
9 | S271D | 1.64 ± 0.2
10 | P411S | 1.23 ± 0.49
11 | Y131D | 0.0798 ± 0.094
12 | Y131H | 1.2 ± 0.44
13 | K269T | 1.47 ± 0.2
14 | Y166W | 0.846 ± 0.087
15 | L245D | -0.177 ± 0.17
16 | L245H | -0.0776 ± 0.099
17 | Y261H | 0.771 ± 0.86
18 | Y261G | 0.901 ± 0.2
19 | Y261L | 0.609 ± 0.14
20 | C134P | 1.62 ± 0.19
21 | S422I | 1.3 ± 0.21
22 | S422C | 1.44 ± 0.095
23 | S421K | 1.45 ± 0.21
24 | Q432L | 1.55 ± 0.15

Row | Variant | STK11 functional score
25 | L140I | 1.15 ± 0.12
26 | E223L | 0.529 ± 0.18
27 | D359E | 0.865 ± 0.47
28 | K423V | 1.28 ± 0.41
29 | V128Q | 1.22 ± 0.12
30 | V128I | 1.63 ± 0.36
31 | R409N | 1.55 ± 0.12
32 | P149I | 0.249 ± 0.1
33 | G233S | 1.44 ± 0.3
34 | T186N | 0.218 ± 0.11
35 | S193M | 0.111 ± 0.094
36 | H168N | 0.275 ± 0.12
37 | M392Y | 1.04 ± 0.61
38 | G270Q | 1.16 ± 0.38
39 | T24C | 1.22 ± 0.12
40 | R104T | 1.3 ± 0.34
41 | Y272T | 1.44 ± 0.45
42 | V114R | 0.501 ± 0.086
43 | D176F | -0.058 ± 0.09
44 | T230N | 1.2 ± 0.42
45 | H154R | 0.997 ± 0.16
46 | H154M | 0.597 ± 0.088
47 | E293H | 1 ± 0.28
48 | K97P | 1.1 ± 0.4

Row | Variant | STK11 functional score
49 | F298I | 1.35 ± 0.61
50 | K82W | 1.33 ± 0.33
51 | K82F | 0.966 ± 0.26
52 | Y126P | -0.144 ± 0.083
53 | Y126W | 0.105 ± 0.079
54 | Y126F | 0.719 ± 0.13
55 | G227S | 1.49 ± 0.38
56 | R383M | 1.59 ± 0.31
57 | I322N | 1.59 ± 0.44
58 | D330H | 0.985 ± 0.41
59 | D330S | 1.47 ± 0.28
60 | I303V | 1.43 ± 0.25
61 | I303Q | 1.56 ± 0.24
62 | G52V | 1.1 ± 0.19
63 | N181L | -0.122 ± 0.069
64 | N181Q | 0.708 ± 0.31
65 | N380T | 1.31 ± 0.45
66 | E165W | 0.516 ± 0.11
67 | L341V | 1.33 ± 0.26
68 | W332P | 1.63 ± 0.24
69 | G163R | 0.0418 ± 0.45
70 | G163L | 0.386 ± 0.3
71 | G163Y | -0.0827 ± 0.069
72 | H345I | 1.44 ± 0.22

Row | Variant | STK11 functional score
73 | L400T | 1.11 ± 0.44
74 | L400Y | 1.55 ± 0.2
75 | T395Y | 1.47 ± 0.23
76 | T395D | 1.56 ± 0.2
77 | T395M | 1.05 ± 0.66
78 | L85A | 1.62 ± 0.21
79 | P326S | 1.36 ± 0.17
80 | H202A | 1.17 ± 0.49
81 | H202N | 0.176 ± 0.17
82 | K178I | 0.388 ± 0.11
83 | G56V | 0.273 ± 0.08
84 | G56E | 1.13 ± 0.098
85 | G56L | 0.359 ± 0.094
86 | A318I | 1.49 ± 0.16
87 | A406C | 1.52 ± 0.2
88 | A406V | 1.52 ± 0.28
89 | K78C | 0.21 ± 0.078
90 | T13I | 1.01 ± 0.37
91 | I29Y | 1.12 ± 0.28
92 | I29C | 1.41 ± 0.41
93 | L105C | 1.53 ± 0.064
94 | L105W | 0.397 ± 0.32
95 | A410V | 1.32 ± 0.21
96 | Q37N | 0.934 ± 0.53

Row | Variant | STK11 functional score
97 | V20P | 1.43 ± 0.45
98 | D115V | 1.27 ± 0.1
99 | S142P | 1.34 ± 0.13
100 | S142W | 0.385 ± 0.093
101 | L72S | 0.585 ± 0.22
102 | V3G | 1.47 ± 0.26
103 | V133S | 1.06 ± 0.3
104 | V243E | 0.204 ± 0.47
105 | Y362V | 1.32 ± 0.36
106 | F354Q | 1.61 ± 0.14
107 | K83Q | 0.343 ± 0.37
108 | Y49H | 1.11 ± 0.48
109 | T402I | 1.25 ± 0.2
110 | D53A | 1.07 ± 0.12
111 | T363P | 1.34 ± 0.17
112 | T363V | 1.2 ± 0.16
113 | A347W | 1.59 ± 0.16
114 | L286I | 1.36 ± 0.24
115 | S401W | 0.786 ± 0.71
116 | V34Y | 1.05 ± 0.13
117 | V34F | 0.976 ± 0.2
118 | Q302P | -0.0839 ± 0.19
119 | Q399W | 1.43 ± 0.38
120 | T185F | 0.993 ± 0.24

Row | Variant | STK11 functional score
121 | H379A | 1.38 ± 0.37
122 | Y292E | 1.52 ± 0.22
123 | L45K | 1.53 ± 0.23
124 | L353G | 1.52 ± 0.15
125 | G385S | 1.51 ± 0.2
126 | G385N | 1.59 ± 0.27
127 | G21R | 1.2 ± 0.64
128 | S419L | 1.17 ± 0.14
129 | C151H | 0.883 ± 0.11
130 | P275W | 0.995 ± 0.1
131 | P275I | 1.17 ± 0.49
132 | P275F | 0.767 ± 0.26
133 | P275L | 0.807 ± 0.099
134 | E121D | 0.812 ± 0.56
135 | E375H | 1.24 ± 0.57
136 | E92S | 0.979 ± 0.19
137 | D350Y | 1.45 ± 0.34
138 | Q170E | 0.234 ± 0.13
139 | Q170D | -0.0762 ± 0.095
140 | N259M | 1.35 ± 0.12
141 | N259G | 0.492 ± 0.49
142 | N259V | 0.437 ± 0.1
143 | E291P | 0.178 ± 0.095
144 | E291C | 1.24 ± 0.24

Row | Variant | STK11 functional score
145 | R333G | 1.47 ± 0.27
146 | M51T | 1.21 ± 0.37
147 | A389P | 1.3 ± 0.36
148 | K287I | 1.27 ± 0.33
149 | P315K | 1.56 ± 0.27
150 | G135W | 0.571 ± 0.6
151 | G135N | 1.7 ± 0.41
152 | G135I | 1.69 ± 0.39
153 | E199I | 0.977 ± 0.097
154 | N90T | 0.558 ± 0.27
155 | D343H | 0.726 ± 0.38
156 | P413E | 1.59 ± 0.25
157 | G276W | 1.36 ± 0.15
158 | L190S | 0.0644 ± 0.18
159 | R426H | 1.61 ± 0.28
160 | E14A | 0.905 ± 0.29
161 | E14Y | 1.34 ± 0.49
162 | L54H | 1.15 ± 0.19
163 | C73R | 1.21 ± 0.15
164 | P324S | 1.45 ± 0.11
165 | P324T | 1.15 ± 0.23
166 | P324H | 1.48 ± 0.15
167 | K388I | 0.996 ± 0.29
